Test [1] has as its target mouse METAP1(1-79) (mouse) (UniProt Q8BP48). Kind of test: other fluorescence titration.
Test [2] addresses mouse METAP1(1-59) (mouse) (UniProt Q8BP48). Kind of test: other fluorescence titration.

In test [1], “mouse ZNG1 N-terminal peptide, synthetic” showed a dissociation constant (Kd) of 100 nM and a stoichiometry N of 1. In test [2], this substance gave an equilibrium dissociation constant (Kd) of 100 nM and a stoichiometry N of 1.
